The target in test [1] is full-length SARS-CoV-2 spike protein (amino acids M1-T1273 of accession number YP_009724390.1) on Ju (SARS-CoV-2) (UniProt P0DTC2). Put plainly: cell-based or functional assay.
In test [2] the target is human FcγR3a 176Val allotype receptor (human) (UniProt P08637). The experiment in a line: cell-based or functional assay.
The target in test [3] is SARS-CoV-2 spike protein on VSV-SARS-CoV-2-S pseudovirus (SARS-CoV-2) (UniProt P0DTC2). Put plainly: cell-based or functional assay.
The target in test [4] is MOD3-SARS-CoV-2 Spike Protein (RBD)(R319-F541).mmH (SARS-CoV-2). Put plainly: Luminex beads, supernatant.
Test [5] concerns the target MOD12-SARS-CoV-2 Spike Protein (RBD)(R319-F541).mmH (SARS-CoV-2). Put plainly: Luminex beads, supernatant.
The target of test [6] is MOD1-SARS-CoV-2 Spike Protein (RBD)(R319-F541).mmH (SARS-CoV-2). Put plainly: Luminex beads, supernatant.
Test [7] deals with MOD4-SARS-CoV-2 Spike Protein (RBD)(R319-F541).mmH (SARS-CoV-2). The experiment in a line: Luminex beads, supernatant.
The target in test [8] is MOD7-SARS-CoV-2 Spike Protein (RBD)(R319-F541).mmH (SARS-CoV-2). The experiment in a line: Luminex beads, supernatant.
For test [9], the target named is MOD9-SARS-CoV-2 Spike Protein (RBD)(R319-F541).mmH (SARS-CoV-2). Put plainly: Luminex beads, supernatant.
The target of test [10] is MOD8-SARS-CoV-2 Spike Protein (RBD)(R319-F541).mmH (SARS-CoV-2). Put plainly: Luminex beads, supernatant.
Test [11] deals with MOD15-SARS-CoV-2 Spike Protein (RBD)(R319-F541).mmH (SARS-CoV-2). The experiment in a line: Luminex beads, supernatant.
Test [12] deals with MOD10-SARS-CoV-2 Spike Protein (RBD)(R319-F541).mmH (SARS-CoV-2). The experiment in a line: Luminex beads, supernatant.
For test [13], the target named is MOD13-SARS-CoV-2 Spike Protein (RBD)(R319-F541).mmH (SARS-CoV-2). The experiment in a line: Luminex beads, supernatant.
For test [14], the target named is MOD2-SARS-CoV-2 Spike Protein (RBD)(R319-F541).mmH (SARS-CoV-2). Put plainly: Luminex beads, supernatant.
Test [15] deals with MOD14-SARS-CoV-2 Spike Protein (RBD)(R319-F541).mmH (SARS-CoV-2). The experiment in a line: Luminex beads, supernatant.
The target in test [16] is MOD5-SARS-CoV-2 Spike Protein (RBD)(R319-F541).mmH (SARS-CoV-2). The experiment in a line: Luminex beads, supernatant.
Test [17] addresses MOD6-SARS-CoV-2 Spike Protein (RBD)(R319-F541).mmH (SARS-CoV-2). Put plainly: Luminex beads, supernatant.
Test [18] has as its target MOD11-SARS-CoV-2 Spike Protein (RBD)(R319-F541).mmH (SARS-CoV-2). Put plainly: Luminex beads, supernatant.
Test [19] concerns the target SARS-CoV-2 spike protein (S-wt, Wuhan-Hu-1, NCBI Accession Number MN908947.3) on VSV pseudoparticles (SARS-CoV-2) (UniProt P0DTC2). Put plainly: cell-based or functional assay.
In test [20] the target is SARS-CoV-2 spike protein, Wuhan-Hu-1 sequence (S-wt), on VSV pseudoparticles (SARS-CoV-2) (UniProt P0DTC2). Put plainly: cell-based or functional assay.
For test [21], the target named is MERS.mFc (mAb2663-L1) (MERS-CoV) (UniProt K9N5Q8). The experiment in a line: Luminex bead binding, supernatant.
Test [22] deals with MERS.hFc (mAb2664-L1) (MERS-CoV) (UniProt K9N5Q8). The experiment in a line: Luminex bead binding, supernatant.
For test [23], the target named is Bt-MERS.hFc (mAb2664-L2) (MERS-CoV) (UniProt K9N5Q8). The experiment in a line: Luminex bead binding, supernatant.

Five substances from US20240043504A1 can be followed below.

Sequence of human FcγR3a 176Val allotype receptor (human) (P08637 17-254 F176V): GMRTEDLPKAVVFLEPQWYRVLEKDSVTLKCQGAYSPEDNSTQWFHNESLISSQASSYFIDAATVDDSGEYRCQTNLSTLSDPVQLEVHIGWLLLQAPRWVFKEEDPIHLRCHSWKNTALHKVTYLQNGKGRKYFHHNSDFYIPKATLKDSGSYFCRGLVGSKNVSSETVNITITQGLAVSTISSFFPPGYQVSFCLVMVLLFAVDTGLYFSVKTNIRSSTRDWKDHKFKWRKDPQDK

In test [1], IgG1 Isotype Control (antibody) registered an ADCP Max (% ADCP), Jurkat/hCD20/SARS-CoV-2 Spike cells of 10.4%.
In test [2], mAb10933 (antibody) registered an ADCC (Activity (%) (of positive control)) of 68.5% and an ADCC Mean RLU (surrogate reporter assay, spike-expressing target cells) of 9740 RLU. The substance also came in with a Neutralization (1:100 dilution) in test [3] of 88.4%.
The substance mAb10934 (antibody) came in with an ADCC Mean RLU (surrogate reporter assay, spike-expressing target cells) in test [2] of 11700 RLU. For the same substance, the Binding signal (MFI) in [4] turned out to be 25100 MFI; in [5], 32900 MFI; in [6], 81 MFI; in [7] it was 31700 MFI; in test [8], 29900 MFI; in test [9], 31300 MFI. The Binding signal (MFI) in [10] is 6410 MFI; in test [11], 27800 MFI; in test [12] it was 30400 MFI; in [13], 30500 MFI; in test [14] it was 27700 MFI; in test [15], 28600 MFI. The figures for the Binding signal (MFI) in test [16], in [17] and in test [18] were 6650 MFI, 30800 MFI and 30700 MFI, respectively.
Substance mAb10987 (antibody) gave an IC50 (M), neutralization in [19] of 4.06e-11 M. In [20], this substance showed a Relative neutralization (5 µg/ml, Vero cells) of 100%. Also, in test [2], the ADCC (Activity (%) (of positive control)) was found to be 29.4% and the ADCC Mean RLU (surrogate reporter assay, spike-expressing target cells) worked out at 12000 RLU. In test [3], this substance gave a Neutralization (1:4 dilution) of 99.3%, a Neutralization (1:20 dilution) of 97.7% and a Neutralization (1:100 dilution) of 94.6%. The Binding signal (MFI) in test [21] was determined as 196 MFI. In test [22], this substance returned a Binding signal (MFI) of 235 MFI. For the same substance, the Binding signal (MFI) in test [23] came out at 172 MFI.
For the substance mAb10989 (antibody), the IC50 (M), neutralization in [19] is 7.23e-12 M. The ADCC (Activity (%) (of positive control)) in [2] was 21.5%. In test [2], this substance returned an ADCC Mean RLU (surrogate reporter assay, spike-expressing target cells) of 10200 RLU. Further, the Neutralization (1:4 dilution) in test [3] was found to be 100%. The same substance gave a Neutralization (1:20 dilution) in test [3] of 99.8%. Moreover, in [3], the Neutralization (1:100 dilution) was 98.2%. Further, the Binding signal (MFI) came to 18300 MFI in test [4]; 15100 MFI in test [5]; 15800 MFI in [7]; 15200 MFI in test [8]; 17800 MFI in test [9]; 6140 MFI in test [10]. Further, the Binding signal (MFI) in test [11] was found to be 15900 MFI; in [12] it was 15500 MFI; in test [14], 16700 MFI; in [15], 18100 MFI; in test [16], 3370 MFI; in [17], 19600 MFI. Also, the Binding signal (MFI) in test [18] stood at 16800 MFI; in test [21], 161 MFI; in test [22] it was 206 MFI; in test [23] it was 186 MFI.
